Results reported in patent US20180282372.

Assays:
[1] = tested on: T1, Aktide biosensor RRRRRSVDSHGGKbiotinGG (SEQ ID NO:11)
T1 sequence: RRRRRSVDSHGGKGG

[2] = target: the other five peptides (of six candidate biosensors peptides screened with LKB1)
[3] = target: T2, candidate biosensor peptide substrate WHLQTWCGYGGKbiotinGG (SEQ ID NO:12)
T2 chain: WHLQTWCGYGGKGG

Akt serine/threonine kinase (protein kinase B)
phosphorylation of the peptide in a time-course in vitro kinase assay (MALDI/TOF/TOF-MS; 0, 30, 60, 120 min) [1]: Nearly complete conversion to phosphorylated product was observed after 2 hr.
phosphorylation of the peptide in an in vitro kinase assay (MALDI/TOF/TOF-MS) [1]: this peptide sequence is able to be efficiently phosphorylated by Akt over a 2 hr kinase assay

B1: LKB1 serine/threonine kinase (Liver Kinase B1) (protein)
chain: MEVVDPQQLGMFTEGELMSVGMDTFIHRIDSTEVIYQPRRKRAKLIGKYLMGDLLGEGSYGKVKEVLDSETLCRRAVKILKKKKLRRIPNGEANVKKEIQLLRRLRHKNVIQLVDVLYNEEKQKMYMVMEYCVCGMQEMLDSVPEKRFPVCQAHGYFCQLIDGLEYLHSQGIVHKDIKPGNLLLTTGGTLKISDLGVAEALHPFAADDTCRTSQGSPAFQPPEIANGLDTFSGFKVDIWSAGVTLYNITTGLYPFEGDNIYKLFENIGKGSYAIPGDCGPPLSDLLKGMLEYEPAKRFSIRQIRQHSWFRKKHPPAEAPVPIPPSPDTKDRWRSMTVVPYLEDLHGADEDEDLFDIEDDIIYTQDFTVPGQVPEEEASHNGQRRGLPKAVCMNGTEAAQLSTKSRAEGRAPNPARKACSASSKIRRLSACKQQ
phosphorylation of the peptide in an in vitro kinase assay screen with LKB1 [2]: Out of these six, one sequence, WHLQTWCGYGGKbiotinGG (SEQ ID NO:12), was shown to be partially phosphorylated by LKB1 after a 3 hr reaction.
phosphorylation of the peptide in an in vitro kinase assay (LC ESI-MS) [3]: this initial peptide sequence is able to be partially phosphorylated by LKB1 after a 3 hr reaction
